In the supplement of paper PMC11136658:

Tested on: peptide library, one residue held at a place counted from the Y acceptor
Assay: relative phosphorylation of the sub-library (ratio to the mean residue at this position); higher = residue favoured
Summary of the method: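 Each value expresses phosphorylation relative to the mean randomized residue. Purified recombinant kinases acted for 90 min in 384-well plates on biotinylated Tyr-centred peptide library mixtures, with one residue fixed at one position from −5 to +5, in the presence of 50 μM ATP with γ-32P-ATP. Signals were read by phosphorimaging after capture on streptavidin membranes, then normalized per position to the sum of the 18 randomized residues (16 in the Ser/Thr-free library) and multiplied by that number.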

TNK1, construct: aa106-390, human, sequence (Q13470 106-390, looked up): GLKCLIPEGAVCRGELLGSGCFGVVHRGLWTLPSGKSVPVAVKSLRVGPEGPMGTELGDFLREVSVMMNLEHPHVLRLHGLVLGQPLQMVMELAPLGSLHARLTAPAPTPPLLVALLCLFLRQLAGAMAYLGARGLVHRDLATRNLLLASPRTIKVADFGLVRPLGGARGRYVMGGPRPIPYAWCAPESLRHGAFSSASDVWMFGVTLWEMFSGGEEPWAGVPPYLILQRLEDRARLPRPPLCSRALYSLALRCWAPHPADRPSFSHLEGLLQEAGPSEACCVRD
TESK1, construct: aa1-345, human, sequence (Q15569 1-345, looked up): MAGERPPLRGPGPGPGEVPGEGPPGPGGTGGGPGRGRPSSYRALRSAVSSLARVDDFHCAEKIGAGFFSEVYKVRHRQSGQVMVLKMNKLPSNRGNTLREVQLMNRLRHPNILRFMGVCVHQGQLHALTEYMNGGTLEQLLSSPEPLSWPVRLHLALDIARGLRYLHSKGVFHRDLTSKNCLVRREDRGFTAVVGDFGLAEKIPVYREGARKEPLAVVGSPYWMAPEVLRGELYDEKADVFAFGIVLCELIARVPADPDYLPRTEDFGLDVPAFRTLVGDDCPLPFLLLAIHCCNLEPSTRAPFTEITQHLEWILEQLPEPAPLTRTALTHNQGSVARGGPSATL

TESK1, construct: aa1-345, human (from UniProt Q15569)
relative phosphorylation
Conditions	at +1	at +2	at +3	at +4	at +5	at -1	at -2	at -3	at -4	at -5
A fixed	0.921	0.778	0.879	0.762	0.876	0.971	0.967	0.874	0.973	0.938
D fixed	0.992	0.998	0.881	0.902	0.794	0.977	0.822	0.931	0.858	0.85
E fixed	0.876	0.917	0.871	0.854	0.839	0.953	0.833	0.776	0.792	0.742
F fixed	0.935	1.11	0.936	0.966	0.869	0.778	0.911	0.926	0.984	0.883
G fixed	0.887	0.899	0.928	1.03	0.915	1	1.09	1.11	1.13	1.05
H fixed	1.01	1.09	1.06	1.07	1.17	0.962	0.976	0.915	0.949	0.975
I fixed	0.796	0.626	0.682	0.781	0.734	0.774	0.952	0.79	0.823	0.861
K fixed	1.13	1.27	1.23	1.3	1.15	1.18	1.34	1.25	1.26	1.35
L fixed	0.81	0.812	0.783	0.913	0.807	0.831	0.92	0.918	0.816	0.862
M fixed	0.76	0.796	0.831	0.928	0.841	0.835	0.81	0.846	0.869	0.82
N fixed	1.05	1.16	1.11	0.978	0.964	1.17	1.01	0.971	0.921	0.964
P fixed	1.02	1.09	1.15	1.28	1.05	1.26	1.07	1.36	1.16	1.1
Q fixed	1.09	1.09	1.02	1.09	0.929	1	0.842	1.04	0.891	0.831
R fixed	1.18	1.25	1.23	1.19	1.27	1.26	1.27	1.29	1.2	1.27
V fixed	0.817	0.69	0.72	0.764	0.713	0.743	0.946	0.864	0.875	0.881
W fixed	1.72	1.44	1.69	1.19	2.09	1.29	1.24	1.14	1.5	1.62
pThr fixed	0.988	0.893	0.765	0.809	0.615	1.05	0.932	0.934	0.929	0.776
pTyr fixed	0.746	0.819	0.738	0.714	0.627	0.861	0.798	0.896	0.669	0.711

TNK1, construct: aa106-390, human (from UniProt Q13470)
relative phosphorylation
Conditions	at +1	at +2	at +3	at +4	at +5	at -1	at -2	at -3	at -4	at -5
A fixed	1.56	0.82	0.743	0.902	0.977	0.86	1.01	0.962	1.07	1.08
D fixed	0.25	0.328	0.335	0.714	0.594	0.276	0.529	0.641	0.78	0.845
E fixed	0.386	0.471	0.268	0.706	0.558	0.277	0.576	0.606	0.8	0.737
F fixed	1.09	1.28	1.87	1.25	1.1	1.01	0.762	0.95	0.886	0.885
G fixed	0.859	0.527	0.82	0.965	1.11	0.924	1.39	1.26	1.32	1.24
H fixed	1.12	0.884	1.24	1.1	0.947	1.64	1.14	1.09	1.01	1.1
I fixed	1.05	1.43	1.27	0.73	0.857	0.809	0.627	0.571	0.807	0.849
K fixed	1.2	1.09	0.728	1.25	1.23	1.59	1.41	1.43	1.29	1.37
L fixed	1	1.23	1.21	0.892	0.997	0.825	0.678	0.784	0.963	0.904
M fixed	1.05	1.36	1.16	1.11	1.13	0.927	0.681	0.84	0.941	0.934
N fixed	0.602	0.876	0.627	0.959	0.978	0.898	1.22	1.1	0.936	1.03
P fixed	0.544	0.843	0.976	1.15	1.53	1.18	1.36	1.33	1.44	1.26
Q fixed	1.08	0.825	0.573	1.1	0.864	1.09	1.07	0.982	1.02	1.04
R fixed	1.45	1.27	0.987	1.28	1.17	2.56	1.8	1.6	1.44	1.26
S fixed	0.936	0.787	0.661	0.901	0.982	0.779	1.23	1.15	0.863	0.999
T fixed	1.03	1.07	0.665	0.891	1.01	0.895	1.01	1.06	0.765	0.912
V fixed	1.18	1.4	1.19	0.846	0.878	0.733	0.748	0.702	0.828	0.832
W fixed	1.6	1.51	2.69	1.26	1.1	0.723	0.749	0.947	0.845	0.718
pThr fixed	0.344	0.38	0.211	0.367	0.429	0.291	0.492	0.539	0.593	0.738
pTyr fixed	0.725	0.413	0.326	0.454	0.485	0.538	0.594	0.733	0.791	0.812

TNK2, construct: aa110-476, human (from UniProt Q07912)
relative phosphorylation
Conditions	at +1	at +2	at +3	at +4	at +5	at -1	at -2	at -3	at -4	at -5
A fixed	2.37	1	0.658	1.04	1.1	0.664	1.24	1.03	1.2	1.13
D fixed	0.799	0.461	0.257	0.749	1.13	0.346	0.917	0.791	0.737	0.812
E fixed	1.01	0.72	0.202	0.835	1.03	0.323	1	0.671	0.743	0.783
F fixed	0.716	1.39	1.03	0.929	1.22	0.934	0.737	0.901	1.05	0.971
G fixed	1.5	0.489	0.492	1.71	1.08	0.562	1.25	1.18	1.23	1.47
H fixed	0.684	0.724	0.513	1.01	0.897	1.59	1	0.972	1	1.05
I fixed	0.759	1.25	3.15	0.888	0.904	1.64	0.74	0.744	0.767	0.834
K fixed	0.587	0.915	0.316	0.774	0.694	1.3	0.894	1.07	1.2	1.12
L fixed	0.684	0.964	2.32	0.742	1.15	1.73	0.694	0.911	0.779	0.787
M fixed	1.37	1.03	1.07	1.02	0.97	1.26	0.69	0.924	0.89	0.815
N fixed	0.613	0.755	0.359	0.903	0.836	0.7	1.03	1.04	0.958	0.996
P fixed	0.233	1.26	0.881	1.55	1.16	0.809	1.69	1.36	1.3	1.22
Q fixed	1.5	1.03	0.437	0.873	0.955	1.15	1.21	1.03	1.17	0.966
R fixed	0.89	1.32	0.367	0.995	0.543	1.82	1.05	1.32	1.36	1.31
S fixed	1.18	1.02	0.543	1.21	1.01	0.626	1.16	1.12	0.824	0.952
T fixed	1.05	1.25	0.94	1.03	1.14	0.936	0.987	1.02	0.762	0.951
V fixed	1.04	1.32	2.39	0.846	0.949	0.951	0.952	0.825	0.785	0.755
W fixed	1.03	1.11	2.07	0.898	1.22	0.658	0.759	1.1	1.25	1.08
pThr fixed	0.667	1.05	0.311	0.814	0.654	0.486	0.969	0.721	0.716	0.775
pTyr fixed	0.727	2.16	0.495	0.959	1.03	0.669	0.714	0.904	0.888	1
